From patent publication US20210139548A1 (published 2021)
*1 amine or outer side, *2 acyl side, *3 side chain or, on linkers, in order; H or OH if unused. Side-chain parts run from the residue outwards. The star is where a group is joined. C18 diacid = O=C(O)CCCCCCCCCCCCCCCCC(=O)*; γGlu = O=C(O)[C@H](CCC(=O)[*:2])N[*:1]; Isovaleryl = CC(C)CC(=O)*; AEEA = NCCOCCOCC(=O)O

Target: T1, human neuropeptide Y2 receptor (human, UniProt P49146 1-381)
T1 construct: whole, on cells; also called hNPY2 receptor; hNPY2-R
T1 sequence (looked up): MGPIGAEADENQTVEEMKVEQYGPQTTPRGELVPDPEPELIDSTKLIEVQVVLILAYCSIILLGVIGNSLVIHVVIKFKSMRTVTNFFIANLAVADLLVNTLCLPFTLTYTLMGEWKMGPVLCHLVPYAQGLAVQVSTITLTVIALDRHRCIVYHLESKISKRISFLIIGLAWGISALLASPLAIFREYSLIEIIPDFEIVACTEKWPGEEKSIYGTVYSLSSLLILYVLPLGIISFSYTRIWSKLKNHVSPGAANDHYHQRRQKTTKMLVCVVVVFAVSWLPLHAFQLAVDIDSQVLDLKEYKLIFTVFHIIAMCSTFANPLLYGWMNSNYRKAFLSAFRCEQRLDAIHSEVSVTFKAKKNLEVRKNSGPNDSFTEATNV
Assay: radioligand competition (125I-PYY(1-36)), hNPY2R membranes
Description: The filtration RLB assay was carried out in 96-well plates in a final volume of 100 μl per well. Freeze-dried test peptides were dissolved in 100% dimethyl sulfoxide (DMSO) to stock solutions of 1 mM and serial dilutions were performed in assay buffer (50 mM HEPES, 5 mM MgCl₂, 1 mM CaCl₂, pH 7.4) containing 0.2% ovalbumin. […] Next, 80 μL membranes (HTS066M, ChemiSCREEN™ Human Neuropeptide Y2 Receptor Membrane Preparation, CHEMICON) were added to each well to give a final protein concentration of 0.5 μg/well. The plates were sealed and incubated at room temperature for 2 hours in a plate shaker set at 400 rpm. The incubation was stopped by vacuum filtration onto 0.5% poly-ethylene amine (PEI) presoaked GF/C filters using a 96-well FilterMate™ harvester (Perkin Elmer) followed by four washes with 300 μl/well ice-cold wash buffer (50 mM HEPES, 500 mM NaCl, pH7.4). Filter plates were then dried for 60 min at room temperature and the bottom of the plates was sealed with backing tape UniFilter-96. Finally, 50 μl/well scintillation counter cocktail (Microscint20, Packard) was added and the radioactivity was counted in the Packard TopCount NXT scintillation counter. IC₅₀ values (the half maximal inhibitory concentration of the agonist) were calculated by nonlinear regression analysis of sigmoidal dose-response curves.

Row | Ki [nM] | Binder
1 | 1.02 | Isovaleryl-APEK([AEEA-AEEA-γGlu-C18 diacid])PEEDASPEELQAYYVSLRHYYNWLTRQRY-NH2 (SMILES CC(C)CC(=O)N[C@@H](C)C(=O)N1CCC[C@H]1C(=O)N[C@@H](CCC(=O)O)C(=O)N[C@@H](CCCCNC(=O)COCCOCCNC(=O)COCCOCCNC(=O)CC[C@H](NC(=O)CCCCCCCCCCCCCCCCC(=O)O)C(=O)O)C(=O)N1CCC[C@H]1C(=O)N[C@@H](CCC(=O)O)C(=O)N[C@@H](CCC(=O)O)C(=O)N[C@@H](CC(=O)O)C(=O)N[C@@H](C)C(=O)N[C@@H](CO)C(=O)N1CCC[C@H]1C(=O)N[C@@H](CCC(=O)O)C(=O)N[C@@H](CCC(=O)O)C(=O)N[C@@H](CC(C)C)C(=O)N[C@@H](CCC(N)=O)C(=O)N[C@@H](C)C(=O)N[C@@H](Cc1ccc(O)cc1)C(=O)N[C@@H](Cc1ccc(O)cc1)C(=O)N[C@H](C(=O)N[C@@H](CO)C(=O)N[C@@H](CC(C)C)C(=O)N[C@@H](CCCNC(=N)N)C(=O)N[C@@H](Cc1c[nH]cn1)C(=O)N[C@@H](Cc1ccc(O)cc1)C(=O)N[C@@H](Cc1ccc(O)cc1)C(=O)N[C@@H](CC(N)=O)C(=O)N[C@@H](Cc1c[nH]c2ccccc12)C(=O)N[C@@H](CC(C)C)C(=O)N[C@H](C(=O)N[C@@H](CCCNC(=N)N)C(=O)N[C@@H](CCC(N)=O)C(=O)N[C@@H](CCCNC(=N)N)C(=O)N[C@@H](Cc1ccc(O)cc1)C(N)=O)[C@@H](C)O)C(C)C) [Compound 7]
2 | 1.22 | Isovaleryl-APEK([AEEA-AEEA-γGlu-C18 diacid])PEEDASPEEIQRYYVELRHYYNWLTRQRY-NH2 (SMILES CC[C@H](C)[C@H](NC(=O)[C@H](CCC(=O)O)NC(=O)[C@H](CCC(=O)O)NC(=O)[C@@H]1CCCN1C(=O)[C@H](CO)NC(=O)[C@H](C)NC(=O)[C@H](CC(=O)O)NC(=O)[C@H](CCC(=O)O)NC(=O)[C@H](CCC(=O)O)NC(=O)[C@@H]1CCCN1C(=O)[C@H](CCCCNC(=O)COCCOCCNC(=O)COCCOCCNC(=O)CC[C@H](NC(=O)CCCCCCCCCCCCCCCCC(=O)O)C(=O)O)NC(=O)[C@H](CCC(=O)O)NC(=O)[C@@H]1CCCN1C(=O)[C@H](C)NC(=O)CC(C)C)C(=O)N[C@@H](CCC(N)=O)C(=O)N[C@@H](CCCNC(=N)N)C(=O)N[C@@H](Cc1ccc(O)cc1)C(=O)N[C@@H](Cc1ccc(O)cc1)C(=O)N[C@H](C(=O)N[C@@H](CCC(=O)O)C(=O)N[C@@H](CC(C)C)C(=O)N[C@@H](CCCNC(=N)N)C(=O)N[C@@H](Cc1c[nH]cn1)C(=O)N[C@@H](Cc1ccc(O)cc1)C(=O)N[C@@H](Cc1ccc(O)cc1)C(=O)N[C@@H](CC(N)=O)C(=O)N[C@@H](Cc1c[nH]c2ccccc12)C(=O)N[C@@H](CC(C)C)C(=O)N[C@H](C(=O)N[C@@H](CCCNC(=N)N)C(=O)N[C@@H](CCC(N)=O)C(=O)N[C@@H](CCCNC(=N)N)C(=O)N[C@@H](Cc1ccc(O)cc1)C(N)=O)[C@@H](C)O)C(C)C) [Compound 9]
3 | 1.29 | Isovaleryl-APEK([AEEA-AEEA-γGlu-C18 diacid])PEEDAAPEELQQYYVSLRHYYNWLTRQRY-NH2 (SMILES CC(C)CC(=O)N[C@@H](C)C(=O)N1CCC[C@H]1C(=O)N[C@@H](CCC(=O)O)C(=O)N[C@@H](CCCCNC(=O)COCCOCCNC(=O)COCCOCCNC(=O)CC[C@H](NC(=O)CCCCCCCCCCCCCCCCC(=O)O)C(=O)O)C(=O)N1CCC[C@H]1C(=O)N[C@@H](CCC(=O)O)C(=O)N[C@@H](CCC(=O)O)C(=O)N[C@@H](CC(=O)O)C(=O)N[C@@H](C)C(=O)N[C@@H](C)C(=O)N1CCC[C@H]1C(=O)N[C@@H](CCC(=O)O)C(=O)N[C@@H](CCC(=O)O)C(=O)N[C@@H](CC(C)C)C(=O)N[C@@H](CCC(N)=O)C(=O)N[C@@H](CCC(N)=O)C(=O)N[C@@H](Cc1ccc(O)cc1)C(=O)N[C@@H](Cc1ccc(O)cc1)C(=O)N[C@H](C(=O)N[C@@H](CO)C(=O)N[C@@H](CC(C)C)C(=O)N[C@@H](CCCNC(=N)N)C(=O)N[C@@H](Cc1c[nH]cn1)C(=O)N[C@@H](Cc1ccc(O)cc1)C(=O)N[C@@H](Cc1ccc(O)cc1)C(=O)N[C@@H](CC(N)=O)C(=O)N[C@@H](Cc1c[nH]c2ccccc12)C(=O)N[C@@H](CC(C)C)C(=O)N[C@H](C(=O)N[C@@H](CCCNC(=N)N)C(=O)N[C@@H](CCC(N)=O)C(=O)N[C@@H](CCCNC(=N)N)C(=O)N[C@@H](Cc1ccc(O)cc1)C(N)=O)[C@@H](C)O)C(C)C) [Compound 13]
4 | 2.89 | Isovaleryl-APEK([AEEA-AEEA-γGlu-C18 diacid])PEEDASPEEIQRYEVSLRHYYNWLTRQRY-NH2 (SMILES CC[C@H](C)[C@H](NC(=O)[C@H](CCC(=O)O)NC(=O)[C@H](CCC(=O)O)NC(=O)[C@@H]1CCCN1C(=O)[C@H](CO)NC(=O)[C@H](C)NC(=O)[C@H](CC(=O)O)NC(=O)[C@H](CCC(=O)O)NC(=O)[C@H](CCC(=O)O)NC(=O)[C@@H]1CCCN1C(=O)[C@H](CCCCNC(=O)COCCOCCNC(=O)COCCOCCNC(=O)CC[C@H](NC(=O)CCCCCCCCCCCCCCCCC(=O)O)C(=O)O)NC(=O)[C@H](CCC(=O)O)NC(=O)[C@@H]1CCCN1C(=O)[C@H](C)NC(=O)CC(C)C)C(=O)N[C@@H](CCC(N)=O)C(=O)N[C@@H](CCCNC(=N)N)C(=O)N[C@@H](Cc1ccc(O)cc1)C(=O)N[C@@H](CCC(=O)O)C(=O)N[C@H](C(=O)N[C@@H](CO)C(=O)N[C@@H](CC(C)C)C(=O)N[C@@H](CCCNC(=N)N)C(=O)N[C@@H](Cc1c[nH]cn1)C(=O)N[C@@H](Cc1ccc(O)cc1)C(=O)N[C@@H](Cc1ccc(O)cc1)C(=O)N[C@@H](CC(N)=O)C(=O)N[C@@H](Cc1c[nH]c2ccccc12)C(=O)N[C@@H](CC(C)C)C(=O)N[C@H](C(=O)N[C@@H](CCCNC(=N)N)C(=O)N[C@@H](CCC(N)=O)C(=O)N[C@@H](CCCNC(=N)N)C(=O)N[C@@H](Cc1ccc(O)cc1)C(N)=O)[C@@H](C)O)C(C)C) [Compound 15]
5 | 0.31 | Isovaleryl-APEK([AEEA-AEEA-γGlu-C18 diacid])PEADATPEELQRYYVSLRHYYNWLTRQRY-NH2 (SMILES CC(C)CC(=O)N[C@@H](C)C(=O)N1CCC[C@H]1C(=O)N[C@@H](CCC(=O)O)C(=O)N[C@@H](CCCCNC(=O)COCCOCCNC(=O)COCCOCCNC(=O)CC[C@H](NC(=O)CCCCCCCCCCCCCCCCC(=O)O)C(=O)O)C(=O)N1CCC[C@H]1C(=O)N[C@@H](CCC(=O)O)C(=O)N[C@@H](C)C(=O)N[C@@H](CC(=O)O)C(=O)N[C@@H](C)C(=O)N[C@H](C(=O)N1CCC[C@H]1C(=O)N[C@@H](CCC(=O)O)C(=O)N[C@@H](CCC(=O)O)C(=O)N[C@@H](CC(C)C)C(=O)N[C@@H](CCC(N)=O)C(=O)N[C@@H](CCCNC(=N)N)C(=O)N[C@@H](Cc1ccc(O)cc1)C(=O)N[C@@H](Cc1ccc(O)cc1)C(=O)N[C@H](C(=O)N[C@@H](CO)C(=O)N[C@@H](CC(C)C)C(=O)N[C@@H](CCCNC(=N)N)C(=O)N[C@@H](Cc1c[nH]cn1)C(=O)N[C@@H](Cc1ccc(O)cc1)C(=O)N[C@@H](Cc1ccc(O)cc1)C(=O)N[C@@H](CC(N)=O)C(=O)N[C@@H](Cc1c[nH]c2ccccc12)C(=O)N[C@@H](CC(C)C)C(=O)N[C@H](C(=O)N[C@@H](CCCNC(=N)N)C(=O)N[C@@H](CCC(N)=O)C(=O)N[C@@H](CCCNC(=N)N)C(=O)N[C@@H](Cc1ccc(O)cc1)C(N)=O)[C@@H](C)O)C(C)C)[C@@H](C)O) [Compound 14]
6 | 1.28 | Isovaleryl-APEK([AEEA-AEEA-γGlu-C18 diacid])PEADASPEETQRYYVSLRHYYNWLTRQRY-NH2 (SMILES CC(C)CC(=O)N[C@@H](C)C(=O)N1CCC[C@H]1C(=O)N[C@@H](CCC(=O)O)C(=O)N[C@@H](CCCCNC(=O)COCCOCCNC(=O)COCCOCCNC(=O)CC[C@H](NC(=O)CCCCCCCCCCCCCCCCC(=O)O)C(=O)O)C(=O)N1CCC[C@H]1C(=O)N[C@@H](CCC(=O)O)C(=O)N[C@@H](C)C(=O)N[C@@H](CC(=O)O)C(=O)N[C@@H](C)C(=O)N[C@@H](CO)C(=O)N1CCC[C@H]1C(=O)N[C@@H](CCC(=O)O)C(=O)N[C@@H](CCC(=O)O)C(=O)N[C@H](C(=O)N[C@@H](CCC(N)=O)C(=O)N[C@@H](CCCNC(=N)N)C(=O)N[C@@H](Cc1ccc(O)cc1)C(=O)N[C@@H](Cc1ccc(O)cc1)C(=O)N[C@H](C(=O)N[C@@H](CO)C(=O)N[C@@H](CC(C)C)C(=O)N[C@@H](CCCNC(=N)N)C(=O)N[C@@H](Cc1c[nH]cn1)C(=O)N[C@@H](Cc1ccc(O)cc1)C(=O)N[C@@H](Cc1ccc(O)cc1)C(=O)N[C@@H](CC(N)=O)C(=O)N[C@@H](Cc1c[nH]c2ccccc12)C(=O)N[C@@H](CC(C)C)C(=O)N[C@H](C(=O)N[C@@H](CCCNC(=N)N)C(=O)N[C@@H](CCC(N)=O)C(=O)N[C@@H](CCCNC(=N)N)C(=O)N[C@@H](Cc1ccc(O)cc1)C(N)=O)[C@@H](C)O)C(C)C)[C@@H](C)O) [Compound 10]
